From patent KR20220054080A (dated 2022) come the findings set out here.

Where a chain is given by its changes, count along the chain named. Read-outs that look alike come from different tables or passages of the source.

Test [1] deals with T1, SARS-CoV-2 RBD-hFc (SARS-CoV-2, UniProt P0DTC2 319-541). The test is described as follows: cell-based or functional assay.
The target of test [2] is SARS-CoV RBD-His (#40150-V08B2, Sino Biological) (SARS-CoV, UniProt P59594 306-527). Kind of test: ELISA, coated His-tagged antigen.
For test [3], the target named is T2, SARS-CoV-2 스파이크 S1-mFc (SARS-CoV-2, UniProt P0DTC2 16-685).
T2 construct: range 16-685
The test is described as follows: competition ELISA: S1-mFc on coated ACE2-His.

The target of test [4] is T3, SARS-CoV-2 RBD-mFc (SARS-CoV-2, UniProt P0DTC2 319-541).
T3 construct: range 319-541
The test is described as follows: Octet QKe BLI, 1:1 global fit.

Test [5] deals with T3, SARS-CoV-2 RBD-mFc. The test is described as follows: competition ELISA: RBD-mFc on coated ACE2-His.
The target in test [6] is T4, SARS-CoV-2 spike protein on live SARS-CoV-2 virus (SARS-CoV-2, UniProt P0DTC2 14-1273). Kind of test: cell-based or functional assay.
In test [7] the target is T3, SARS-CoV-2 RBD-mFc. The test is described as follows: flow cytometry competition: RBD-mFc on HEK293E/ACE2 cells.
Test [8] has as its target T5, SARS-CoV 스파이크 [change] (#40150-V08B1, Sino Biological) (SARS-CoV, UniProt P59594 14-667). Kind of test: ELISA, coated S1-His, as Example 5.2.
Test [9] deals with T3, SARS-CoV-2 RBD-mFc. Kind of test: competition ELISA: RBD-mFc on coated ACE2-His. The source holds these as a separate data set.
Test [10] concerns the target T2, SARS-CoV-2 스파이크 S1-mFc.
Test [11] has as its target T3, SARS-CoV-2 RBD-mFc.
For test [12], the target named is T5, SARS-CoV 스파이크 [change] (#40150-V08B1, …). Kind of test: ELISA, coated S1-His.
Test [13] concerns the target T1, SARS-CoV-2 RBD-hFc. The test is described as follows: cell-based or functional assay. The source holds these as a separate data set.
Test [14] deals with T2, SARS-CoV-2 스파이크 S1-mFc. Kind of test: competition ELISA: S1-mFc on coated ACE2-His. This is another data set of the same source.
For test [15], the target named is T3, SARS-CoV-2 RBD-mFc. The test is described as follows: flow cytometry competition: RBD-mFc on HEK293E/ACE2 cells. This is another data set of the same source.
The target of test [16] is T3, SARS-CoV-2 RBD-mFc. Kind of test: Octet QKe BLI, 1:1 global fit. This is another data set of the same source.
Test [17] has as its target T3, SARS-CoV-2 RBD-mFc. The source holds these as a separate data set.
Test [18] deals with T4, SARS-CoV-2 spike protein on live …. Kind of test: cell-based or functional assay. The source holds these as a separate data set.

B1: SA4118 (antibody, V domains shown)
VH: QVQLVESGAEVKKPGASVRVSCKISGYIFTELSIHWVRQAPGKGLEWMGGFDPEEGKTIYAQKFQGRVTMTEDTSTDTAYMELSSLRSEDTAVYYCAKIGHLGDFWYWGQGTLITVSS
VL: QSALTQPASVSGSPGQSITISCTGTTSDIGSYDYVSWYQQHPGKAPKLIIYGVTRRPSGVSNRFSGSKSGNTASLTISGLQAEDEANYYCSSCTRSSTYVFGTGTKVTVL
Consider B1, for which the “IC50, 세포내 유입(internalization) 억제, HEK293E/ACE2-GFP” value (“IC50 … HEK293E/ACE2-GFP” for short) with SARS-CoV-2 RBD-hFc [1] is 31.4 nM. In addition, the binding result in test [2] and in test [8] was “no binding” each time. Also, the IC50 with SARS-CoV-2 스파이크 S1-mFc [3] amounted to 2.28 nM; with SARS-CoV-2 RBD-mFc [5], 0.709 nM; with SARS-CoV-2 RBD-mFc [7], 2.71 nM. In the test with SARS-CoV-2 RBD-mFc [4], this molecule yielded a dissociation constant (Kd) of 0.0296 nM. Besides, the koff with SARS-CoV-2 RBD-mFc [4] worked out at 2.05e-05 s⁻¹. This molecule showed a kon with SARS-CoV-2 RBD-mFc [4] of 695000 M⁻¹ s⁻¹. For the same molecule, the “IC50, live SARS-CoV-2 미세중화분석, Vero 세포, 72시간” value (from here on “IC50 … 72시간”) in [6] is 8.29 nM.

B2: SA3755 (antibody, V domains shown)
VH: QMQLVESGGGVVQPGGSLRLSCAASGFTFDDHTMHWVRQAPGKGLEWVSLISWDGGSTYYADSVKGRFTISRDNSKNSLYLQMNSLRAEDTAVYYCTRDASRRPGDGGYDFDVWGQGTQVTVSS
VL: QAVVTQEPSLTVSPGGTVTLTCGSSTGTVTRGHWPYWFQQKPGQAPRTLIYDTDNKHSWTPARFSGSLLGGKAALTLSGAQPEDEADYYCLLSYSDSRVFGTGTKVTVL
As to B2, the “IC50 … HEK293E/ACE2-GFP” value was 35.8 nM with SARS-CoV-2 RBD-hFc [1] and 40 nM with SARS-CoV-2 RBD-hFc [13]. Also, the IC50 is 7.74 nM in the test with SARS-CoV-2 RBD-mFc [9]; 8.27 nM with SARS-CoV-2 스파이크 S1-mFc [10]; 23.1 nM in the test with SARS-CoV-2 RBD-mFc [11]; 4.67 nM with SARS-CoV-2 스파이크 S1-mFc [3]; 4.06 nM with SARS-CoV-2 스파이크 S1-mFc [14]; 3.8 nM with SARS-CoV-2 RBD-mFc [15]. The IC50 is 5.71 nM with SARS-CoV-2 RBD-mFc [5], 3.09 nM in the test with SARS-CoV-2 RBD-mFc [7] and 2.26 nM in the test with SARS-CoV-2 RBD-mFc [17]. The binding result is “no binding” in [2] and “no binding (tested: 50 nM)” in [12]. In the test with SARS-CoV-2 RBD-mFc [16], this molecule came in with a Kd of 1.06 nM. This molecule also came in with a koff with SARS-CoV-2 RBD-mFc [16] of 0.000424 s⁻¹. For the same molecule, the kon in the test with SARS-CoV-2 RBD-mFc [16] was 399000 M⁻¹ s⁻¹. Further, in test [6], the “IC50 … 72시간” value worked out at 5.12 nM. Further, the “IC50, live SARS-CoV-2 미세중화분석, Vero 세포” value in [18] came out at 8.74 nM.

B3: SA4086 (antibody, V domains shown)
VH: QVQLVESGGGVVQPGRSLRLSCAASGFTFSSYAMHWVRQAPGKGLEWVAVISYDGSNKYYADSAKGRFTISRDNSKNTLYLQMNSLRAEDTAVYYCARRGHYYDSSGYLYWGHGTLITVSS
VL: DIQMTQSPSSLSASVGDRVTITCRASQSISTYLSWYQQKPGKAPKLLIYAASNLQSGVPSRFSASGSGTDFTLTISSLQPEDFATYYCQQSYNTPRTFGQGTKVEIK
For the molecule B3, the “IC50 … HEK293E/ACE2-GFP” value with SARS-CoV-2 RBD-hFc [1] turned out to be 27.2 nM. Moreover, the binding result in test [2] and in test [8] was “no binding” each time. In addition, the IC50 amounted to 1.28 nM with SARS-CoV-2 스파이크 S1-mFc [3], 1.24 nM with SARS-CoV-2 RBD-mFc [5] and 2.47 nM with SARS-CoV-2 RBD-mFc [7]. This molecule displayed a Kd with SARS-CoV-2 RBD-mFc [4] of 0.106 nM. For the same molecule, the koff with SARS-CoV-2 RBD-mFc [4] turned out to be 4.99e-05 s⁻¹. Besides, the kon with SARS-CoV-2 RBD-mFc [4] came to 471000 M⁻¹ s⁻¹. The “IC50 … 72시간” value in test [6] came to 12.4 nM.

B4: SA4114 (antibody, V domains shown)
VH: B3 VH with G10T, V11L, A64V, Y108F, H113Q, I117V
VL: DIQMTQSPSSLSASVGDRVTITCRAGQSIDNYLNWYQQKPGKAPKLLIYAASTLHSGVPSRFSGSGSGTDFTLTISSLQPDDFATYYCQQSYSIPRTFGQGTKLEIK
Turning to B4, the “IC50 … HEK293E/ACE2-GFP” value in the test with SARS-CoV-2 RBD-hFc [1] worked out at 24.1 nM. The binding result in [2] and in test [8] was “no binding” in each case. The half-inhibitory concentration (IC50) with SARS-CoV-2 스파이크 S1-mFc [3] came to 1.19 nM; with SARS-CoV-2 RBD-mFc [5], 0.364 nM; in the test with SARS-CoV-2 RBD-mFc [7], 2.39 nM. Also, the Kd with SARS-CoV-2 RBD-mFc [4] came to 0.0899 nM. Also, the koff in the test with SARS-CoV-2 RBD-mFc [4] is 3.89e-05 s⁻¹. Further, in the test with SARS-CoV-2 RBD-mFc [4], the kon stood at 433000 M⁻¹ s⁻¹. In addition, in test [6], the “IC50 … 72시간” value is 12.8 nM.
